# Bridge positions count the residues as written; N and C are the ends. Square brackets hold non-standard residues; d marks the D form. * marks the point of attachment. 2Nal = N[C@@H](Cc1ccc2ccccc2c1)C(=O)O; Palmitoyl = CCCCCCCCCCCCCCCC(=O)*; Lauroyl = CCCCCCCCCCCC(=O)*; hCys = N[C@@H](CCS)C(=O)O; PhAc = O=C(Cc1ccccc1)*; Bz = O=C(c1ccccc1)*; Mpa = O=C(O)CCS; iPr = CC(C)*
# Target: T1, Human chemokine receptor CXCR4 (human, UniProt P61073 1-352)
# T1 construct: whole, on cells; Used as membranes (0.5 ug membrane protein) of Chem-1 cells that express the receptor; also called C-X-C chemokine receptor type 4; fusin
# Assay: competition with [125I]SDF-1α, human CXCR4 membranes (Chem-1 cells)
# Experimental: Human chemokine receptor CXCR4 expressed in Chem-1 cells were used in modified HEPES buffer pH 7.4. A 0.5 μg (Membrane protein may change from lot to lot, the concentration used were adjusted as necessary), aliquot was incubated with 0.03 nM [¹²⁵I]SDF-1α for 90 minutes at 25° C. Non-specific binding was estimated in the presence of 30 nM SDF-1α. Membranes were filtered and washed, filters were then counted to determine [¹²⁵I]SDF-1α specifically bound. Compounds were screened starting at 10 μM with 11-point dilutions (Valenzuela-Fernandez A, et al. J Biol Chem. 277(18):15677, 2002).
# T1 sequence (P61073 whole entry): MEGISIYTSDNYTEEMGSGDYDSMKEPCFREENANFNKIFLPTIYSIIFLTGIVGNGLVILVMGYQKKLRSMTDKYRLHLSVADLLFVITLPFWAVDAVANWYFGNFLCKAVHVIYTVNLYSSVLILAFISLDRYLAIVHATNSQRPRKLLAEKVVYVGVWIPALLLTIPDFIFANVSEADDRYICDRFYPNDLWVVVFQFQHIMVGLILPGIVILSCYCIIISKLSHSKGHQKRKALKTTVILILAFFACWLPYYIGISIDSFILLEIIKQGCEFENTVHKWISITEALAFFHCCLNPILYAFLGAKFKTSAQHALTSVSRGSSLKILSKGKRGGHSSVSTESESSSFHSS
Binder,Binding Kb,IC50
"[Mpa]RYR[2Nal]GCRG[dF]G-NH2 (disulfide 1-7; also: acetate salt, Synthetic cyclic peptide, acetate salt; also called MLB-011) [Cyclo[Mpa-Arg-Tyr-Arg-2Nal-Gly-Cys]-Arg-Gly-(D-Phe)-Gly-NH2]",> 1000 nM,
"[Mpa]YK(iPr)[dR][2Nal]GCK(iPr)G-NHEt (disulfide 1-7; also: acetate salt, Synthetic cyclic peptide, acetate salt; also called MLB-014) [Cyclo[Mpa-Tyr-Lys(iPr)-(D-Arg)-2Nal-Gly-Cys]-Lys(iPr)-Gly-NH(Et)]",0.19 nM,0.64 nM
"[Mpa]YK(iPr)[dR][2Nal]GCK(iPr)K(Ac)-NHEt (disulfide 1-7; also: acetate salt, Synthetic cyclic peptide, acetate salt; also called MLB-027) [Cyclo[Mpa-Tyr-Lys(iPr)-(D-Arg)-2Nal-Gly-Cys]-Lys(iPr)-Lys(Ac)-NH(Et)]",0.15 nM,0.48 nM
"[Mpa]YK(iPr)[dR][2Nal]GCK(iPr)K(Lauroyl)-NHEt (disulfide 1-7; also: acetate salt, Synthetic cyclic peptide, acetate salt; also called MLB-028) [Cyclo[Mpa-Tyr-Lys(iPr)-(D-Arg)-2Nal-Gly-Cys]-Lys(iPr)-Lys(lauroyl)-NH(Et)]",2.5 nM,8.2 nM
"[Mpa]YK(iPr)[dR][2Nal]GCK(iPr)K(Palmitoyl)-NHEt (disulfide 1-7; also: acetate salt, Synthetic cyclic peptide, acetate salt; also called MLB-029) [Cyclo[Mpa-Tyr-Lys(iPr)-(D-Arg)-2Nal-Gly-Cys]-Lys(iPr)-Lys(palmitoyl)-NH(Et)]",3.2 nM,11 nM
"[Mpa]YK(iPr)[dR][2Nal]GCK(iPr)G[2Nal]G-NH2 (disulfide 1-7; also: acetate salt, Synthetic cyclic peptide, acetate salt; also called MLB-008) [Cyclo[Mpa-Tyr-Lys(iPr)-(D-Arg)-2Nal-Gly-Cys]-Lys(iPr)-Gly-2Nal-Gly-NH2]",0.29 nM,0.95 nM
"[Mpa]YK(iPr)[dR][2Nal]GCRG[dF]G-NH2 (disulfide 1-7; also: acetate salt, Synthetic cyclic peptide, acetate salt; also called MLB-002) [Cyclo[Mpa-Tyr-Lys(iPr)-(D-Arg)-2Nal-Gly-Cys]-Arg-Gly-(D-Phe)-Gly-NH2]",0.28 nM,0.92 nM
"[Mpa]YR[dR][2Nal]GCRG[dF]G-NH2 (disulfide 1-7; also: acetate salt, Synthetic cyclic peptide, acetate salt; also called MLB-001) [Cyclo[Mpa-Tyr-Arg-(D-Arg)-2Nal-Gly-Cys]-Arg-Gly-(D-Phe)-Gly-NH2]",7.3 nM,24 nM
"Ac-[hCys]YK(iPr)[dR][2Nal]GCK(iPr)G-NH2 (disulfide 1-7; also: acetate salt, Synthetic cyclic peptide, acetate salt; also called MLB-010) [Ac-cyclo[hCys-Tyr-Lys(iPr)-(D-Arg)-2Nal-Gly-Cys]-Lys(iPr)-Gly-NH2]",0.17 nM,0.56 nM
"Bz-[hCys]YK(iPr)[dR][2Nal]GCK(iPr)G-NH2 (disulfide 1-7; also: acetate salt, Synthetic cyclic peptide, acetate salt; also called MLB-021) [Benzoyl-cyclo[hCys-Tyr-Lys(iPr)-(D-Arg)-2Nal-Gly-Cys]-Lys(iPr)-Gly-NH2]",0.13 nM,0.42 nM
"Bz-CYK(iPr)[dR][2Nal]G[hCys]K(iPr)G-NH2 (disulfide 1-7; also: acetate salt, Synthetic cyclic peptide, acetate salt; also called MLB-022) [Benzoyl-cyclo[Cys-Tyr-Lys(iPr)-(D-Arg)-2Nal-Gly-hCys]-Lys(iPr)-Gly-NH2]",0.21 nM,0.71 nM
"Bz-CYK(iPr)[dR][2Nal]GCK(iPr)G-NH2 (disulfide 1-7; also: acetate salt, Synthetic cyclic peptide, acetate salt; also called MLB-023) [Benzoyl-cyclo[Cys-Tyr-Lys(iPr)-(D-Arg)-2Nal-Gly-Cys]-Lys(iPr)-Gly-NH2]",1 nM,3.4 nM
"Bz-[hCys]YK(iPr)[dR][2Nal]GCK(iPr)G-NHEt (disulfide 1-7; also: acetate salt, Synthetic cyclic peptide, acetate salt; also called MLB-024) [Benzoyl-cyclo[hCys-Tyr-Lys(iPr)-(D-Arg)-2Nal-Gly-Cys]-Lys(iPr)-Gly-NH(Et)]",0.39 nM,1.3 nM
"PhAc-[hCys]YK(iPr)[dR][2Nal]GCK(iPr)G-NH2 (disulfide 1-7; also: acetate salt, Synthetic cyclic peptide, acetate salt; also called MLB-025) [Phenylacetyl-cyclo[hCys-Tyr-Lys(iPr)-(D-Arg)-2Nal-Gly-Cys]-Lys(iPr)-Gly-NH2]",0.25 nM,0.84 nM
"Ac-[hCys]YK(iPr)[dR][2Nal]GCK(iPr)G-NHEt (disulfide 1-7; also: acetate salt, Synthetic cyclic peptide, acetate salt; also called MLB-026) [Ac-cyclo[hCys-Tyr-Lys(iPr)-(D-Arg)-2Nal-Gly-Cys]-Lys(iPr)-Gly-NH(Et)]",0.27 nM,0.89 nM
"Bz-CYK(iPr)[dR][2Nal]GCK(iPr)G-NH2 (linker 1-7 via 1,2‑bisbromomethyl benzene; also: acetate salt, Acetate salt) [MLB-030]",0.39 nM,1.3 nM
"Ac-CYK(iPr)[dR][2Nal]GCK(iPr)G-NH2 (linker 1-7 via 1,2‑bisbromomethyl benzene; also: acetate salt, Acetate salt) [MLB-032]",0.12 nM,0.4 nM
"Ac-CYK(iPr)[dR][2Nal]GCK(iPr)G-NH2 (linker 1-7 via 1,3‑bisbromomethyl benzene; also: acetate salt, Acetate salt) [MLB-033]",0.99 nM,3.3 nM
"[Mpa]YK(iPr)[dR][2Nal]GC[dR]G[dF]G-NH2 (disulfide 1-7; also: acetate salt, Synthetic cyclic peptide, acetate salt; also called MLB-004) [Cyclo[Mpa-Tyr-Lys(iPr)-(D-Arg)-2Nal-Gly-Cys]-(D-Arg)-Gly-(D-Phe)-Gly-NH2]",0.21 nM,0.7 nM

# Reference: patent publication US20190309023A1 (MAINLINE BIOSCIENCES, published 2019)
